According to US20220025022A1 (published 2022):

T1: MBP-CfaE-N (recombinant N-terminal adhesin domain of CfaE fused to an MBP tag) (enterotoxigenic Escherichia coli (ETEC), UniProt P25734 24-205, Biotinylated for SPR; FITC or Alexa dye labelled for flow cytometry; sites not stated.)
T1 construct: Used plain (ELISA), biotinylated (SPR) and FITC/Alexa-labelled (flow cytometry); GenBank M55661 is printed for the nucleic acid; also called recombinant N-terminal truncated CfaE protein; N-terminal CfaE protein
T1 sequence: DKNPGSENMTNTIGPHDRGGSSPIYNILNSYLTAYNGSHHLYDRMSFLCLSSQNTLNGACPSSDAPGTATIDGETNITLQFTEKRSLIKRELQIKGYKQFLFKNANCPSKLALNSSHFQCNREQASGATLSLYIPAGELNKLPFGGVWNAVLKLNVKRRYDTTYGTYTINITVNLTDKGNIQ

T2: CFA/I fimbrial protein (with adhesin subunit CfaE) on ETEC strain H10407 (enterotoxigenic Escherichia coli (ETEC), UniProt P25734 1-360)
T2 sequence (looked up): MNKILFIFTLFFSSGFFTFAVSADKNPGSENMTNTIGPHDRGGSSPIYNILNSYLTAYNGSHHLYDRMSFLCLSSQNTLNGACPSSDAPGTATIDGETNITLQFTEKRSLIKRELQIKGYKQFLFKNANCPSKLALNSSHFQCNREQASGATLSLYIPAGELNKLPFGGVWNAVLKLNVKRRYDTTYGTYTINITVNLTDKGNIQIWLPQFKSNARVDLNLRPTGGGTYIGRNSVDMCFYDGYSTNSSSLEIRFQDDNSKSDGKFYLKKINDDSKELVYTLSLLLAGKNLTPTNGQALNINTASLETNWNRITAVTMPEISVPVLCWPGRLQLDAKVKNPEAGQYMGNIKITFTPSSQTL

T3: recombinant CS2 (N-terminal adhesin domain of CotD, MBP-tagged) (enterotoxigenic Escherichia coli (ETEC))
T3 construct: also called CotD, CS2; colonization factor antigen CS2
T3 chain: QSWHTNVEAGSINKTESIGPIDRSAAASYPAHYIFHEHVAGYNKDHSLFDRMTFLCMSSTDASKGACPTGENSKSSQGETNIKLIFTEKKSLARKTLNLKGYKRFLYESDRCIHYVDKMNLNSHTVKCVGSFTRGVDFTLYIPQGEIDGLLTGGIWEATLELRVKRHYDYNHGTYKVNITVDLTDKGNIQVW


Key:
[1] = biological target: T1, MBP-CfaE-N (recombinant N-terminal …); test: SPR (Biacore T200), CfaE on CM5 chip, VHH injected, 25 C, 1:1 model
Experimental: Surface plasmon resonance (SPR) technology was used to assess the binding properties of the VHH molecules (BIACORE® T200 instrument; GE Healthcare). Biotinylated CfaE protein was coupled to a CM5 sensor chip using standard amine coupling chemistry. Various concentrations of lead nanobodies ranging from 1 to 10 ug were injected over the chip surface at a flow rate of 30 l/min. An association step of 60 s was followed by a dissociation step of 180 s, and the final dissociation step was 600 s. Regeneration of the sensor chip surface was accomplished using 3 M MgCl₂. Experiments were performed at 25° C. Kinetic data were analyzed using BIACORE® T200 Evaluation (version 3.0) software and a 1:1 binding model. All chemicals for the BIACORE® experiment were purchased from GE Healthcare.

[2] = biological target: CS4 on ETEC strain (enterotoxigenic Escherichia coli (ETEC)); test: cell-based or functional assay
[3] = biological target: CS21 on ETEC strain #100171 (enterotoxigenic Escherichia coli (ETEC)); test: cell-based or functional assay
[4] = biological target: CS6 on ETEC strain #100001 (enterotoxigenic Escherichia coli (ETEC)); test: cell-based or functional assay
[5] = biological target: CS19 on ETEC strain #204648 (enterotoxigenic Escherichia coli (ETEC)); test: cell-based or functional assay
[6] = biological target: CS5 on ETEC strain #204348 (enterotoxigenic Escherichia coli (ETEC)); test: cell-based or functional assay
[7] = biological target: CS3 on ETEC strain #100483 (enterotoxigenic Escherichia coli (ETEC)); test: cell-based or functional assay
[8] = biological target: CS1 on ETEC strain #200145 (enterotoxigenic Escherichia coli (ETEC)); test: cell-based or functional assay
[9] = biological target: CS14 on ETEC strain #400599 (enterotoxigenic Escherichia coli (ETEC)); test: cell-based or functional assay
[10] = biological target: CS2 on ETEC strain #201546 (enterotoxigenic Escherichia coli (ETEC)); test: cell-based or functional assay
[11] = biological target: CS17 on ETEC strain (enterotoxigenic Escherichia coli (ETEC)); test: cell-based or functional assay
[12] = biological target: T2, CFA/I fimbrial protein (with adhesin …); test: cell-based or functional assay
[13] = biological target: T3, recombinant CS2 (N-terminal adhesin …); test: ELISA on coated recombinant antigen

| Binder | Kd [1] | koff [1] | kon [1] | MRHA IC100 [2] | MRHA IC100 [3] | MRHA IC100 [4] | MRHA IC100 [5] | MRHA IC100 [6] | MRHA IC100 [7] | MRHA IC100 [8] | MRHA IC100 [9] | MRHA IC100 [10] | MRHA IC100 [11] | MRHA IC100 [12] | binding result [13] |
| --- | --- | --- | --- | --- | --- | --- | --- | --- | --- | --- | --- | --- | --- | --- | --- |
| VHH antibody 2R23 (monomeric) (VHH, also called clone 2R23) VHH: QVQLQESGGGLVQAGGSLRLSCAASGYIFWSYGYMGWYRQAPGKERELVATISRGGTTNYADSVKGRFTISRDNAKNTVYLQMNSLKPEDTAVYYCAAGRYAFGYFKYWGQGTQVTVSS | 9.06 nM | 64.6 s⁻¹ | 7.13e+09 M⁻¹ s⁻¹ | 25 µg/mL | 25 µg/mL | 12.5 µg/mL | 200 µg/mL | 12.5 µg/mL | 100 µg/mL | 200 µg/mL | 25 µg/mL | 200 µg/mL | 6.25 µg/mL | 50 µg/mL |  |
| VHH antibody 2R215 (monomeric) (VHH) VHH: QVQLQESGGGLVQAGGSLRLSCAASGNIFQDAEMGWYRQAPGKEREFVATIAYGGNTNYADSVKGRFTISRDNAKNTVYLQMNSLKPEDTAVYYCAVYTGVYYDRTTGGYVAFEYWGQGTQVTVSS |  |  |  | 100 µg/mL | 25 µg/mL | 25 µg/mL | 200 µg/mL | 6.25 µg/mL | 100 µg/mL | 200 µg/mL | 200 µg/mL | 6.25 µg/mL | 6.25 µg/mL | 25 µg/mL |  |
| VHH antibody 1D7 (monomeric) (VHH, also called clone 1D7) VHH: EVQLVESGGGLVQAGGSLTLSCAASERTFSYYVMAWFRQAPGKEREFVAGISMSGDSTKYADSVKGRFTISRDNAENTGYLQMNGLKPEDTAVYYCAADRDIRGNFRSWGRGTQVTVSS | 17.7 nM | 0.0311 s⁻¹ | 1.75e+06 M⁻¹ s⁻¹ | 200 µg/mL | 25 µg/mL | 12.5 µg/mL | 100 µg/mL | 3.12 µg/mL | 50 µg/mL | 50 µg/mL | 100 µg/mL | 50 µg/mL | 6.25 µg/mL | 100 µg/mL | no binding |
